Reference: article PMC4829898

Target: recombinant soluble trimeric hemagglutinin (triHA) (influenza A virus A/Belgium/2009 (H1N1, 2009 pandemic) | Saccharomyces cerevisiae)
Test: SEC

Work on “recombinant soluble trimeric hemagglutinin (triHA)” yielded a stoichiometry N of 3.
